Test results published in PMC11779849.

What was measured:
[1] = target: human P-cadherin K14E mutant ectodomain (EC1-5) (human); experiment: single-molecule AFM force spectroscopy; biotinylated Pcad EC1-5 held by streptavidin on PEG tethers on both the cantilever and the glass substrate; no CQY684 (-CQY); tip retracted at 1 µm/s; Tris buffer pH 7.5, 10 mM Tris-HCl, 100 mM NaCl, 10 mM KCl, 2.5 mM CaCl2; peak forces from Gaussian fits of unbinding force histograms
[2] = target: human P-cadherin K14E mutant ectodomain (EC1-5) (human); experiment: single-molecule AFM force spectroscopy; as the -CQY experiment but with 40 nM CQY684 Fab in the buffer (+CQY); Pcad EC1-5 on cantilever and substrate; 1 µm/s; Tris buffer pH 7.5 with 2.5 mM CaCl2
[3] = target: human P-cadherin W2A mutant ectodomain (EC1-5) (human); experiment: single-molecule AFM force spectroscopy; biotinylated Pcad EC1-5 held by streptavidin on PEG tethers on both the cantilever and the glass substrate; no CQY684 (-CQY); tip retracted at 1 µm/s; Tris buffer pH 7.5, 10 mM Tris-HCl, 100 mM NaCl, 10 mM KCl, 2.5 mM CaCl2; peak forces from Gaussian fits of unbinding force histograms
[4] = target: human P-cadherin W2A mutant ectodomain (EC1-5) (human); experiment: single-molecule AFM force spectroscopy; as the -CQY experiment but with 40 nM CQY684 Fab in the buffer (+CQY); Pcad EC1-5 on cantilever and substrate; 1 µm/s; Tris buffer pH 7.5 with 2.5 mM CaCl2

Row | peak unbinding force [1] [pN] | peak unbinding force (with 40 nM CQY684) [2] [pN] | peak unbinding force [3] [pN] | peak unbinding force, first Gaussian (with 40 nM CQY684) [4] [pN] | peak unbinding force, second Gaussian (with 40 nM CQY684) [4] [pN] | Substance
1 | 33.1 | 31 |  |  |  | human P-cadherin K14E mutant ectodomain (EC1-5) (domain or fragment)
2 |  |  | 24.5 | 35.1 | 55.8 | human P-cadherin W2A mutant ectodomain (EC1-5) (domain or fragment)
